From the DeepSol protein solubility set

assay: soluble on expression in E. coli; label from the status in PepcDB or PDB records

Sequence | soluble on expression in E. coli
GMMTHYSDNTLKVAHQGFEFFTQGLATGEWQKFLDMLTEDFTFWFPMGEFHGLNVGKERAKEFFTYVSESFHTGIQISSLDRVTSNETTVVFEFRDEGLFLGKPYKNRVAVSFDVRGDKICSYREYFGSDGKSN | soluble
MSKYGCPTSDTDPNSVTMITKRGPVNKTLKSAAQLNAAQRAGVDISTEKKTMSGGNRQHSANKNTLRLDEETEELHHQKVALSLGKVMQQARATKGWTQKDLSTQINEKPQVVGEYESGKAVPNQQIMAKMERALGVKLRGKDIGMPFSTKPPAKK | not soluble
MNNYLKNLKEVFARIFRPNNRKSTRTYLQRSISYWRRNSIYLDNIYNKISTDTAQLRFKHVKITRNPGGVDSMVWYEHSDLAEVLTVSPNPLEVPVVFWSNVTRAMLRDGVAVVVPRWKNGRLVEIWLAKKTVTWTAESVELMLDDVAVELPLTDVWVFENPKLNVTAQLNQITELIDINLNALTEKLSDGNSSLRGFLKLPTKAADEHLKQQARDRVDSMLDLAKNGGIAYLEQGEEFQELSKDYSTASKEELEFLKSQLYNAHGINEKLFTCDYTEEQYRAYYSSVMKLYQRVYSEEINRKYFTKTARTQGNKLLVFFDMADMISFKDLVEGGFKSKYAGLMNSNEFRETYLGLPGYEGGEVFETNLNAVRIGAEESE | not soluble
MAHHHHHHMNSTDTKQSAGYFKEKATIGLSSFSGDEIVKAILKTTSHLLKAPKEKYMQKLVAASYGQYGSGLREGLPINEFIVRELEKRSHTHNWIVVLKTMVSFHRLMCDASDSMVETICYYRHVFRASNIKNLADTADGAGQAYFIAQYMTYLEERCVMQSALGKGRRVEIREFEEYLETLNAKSLQPVFEILLRLFEAVPAVEYREAVVNNFCTLEAYQLLVRDGKQLFQHLAKRVIFILDGFEDFSLPEKRRWFDLYRRYASAFASVKQYFDSMLCSSRVFLEPVPKLKPLPESLLTRLEGDIRASETAKEGLCTLESLGICSREDSRVDSKEEKIRPPRAPEPAVVNQSEAVTALTPAAPTVSLDDLFVPSQEPTKPVQPASCPASWTPAPLAATSFQQGSEQFQWETGVPQNWGSGGHITLQAIATPPVPPPQHAFSGGAPPPAGEGALYPLVQSALKQPPPPVQFKKPADPLKDLYNSCHWQSN | not soluble
MENEVVFFCRKCNHHLFAKNPMINTLKVISEMDCPNCGEEGYHNWILSHIGDSEKEKENYNWKLEHHHHHH | soluble
MQVTYKGRPIRITPDFSPETMKARRAWTDVIQTLREHKCQPRLLYPAKLSITIDGETKVFHDKTKFTQYLSTNPALQRIITEKKQYKD | soluble
MEVEKYDLTLDFDIQKRTFNGTETITADAGDIVLDAVGLQINWMKVNGRDTAFTYDGQTVRAPGDSQPQKIEISFAGKVSDSLSGIYYAGRENGMITTHFEATDARRMFPCVDHPAYKAVFAITVVIDKDYDAISNMPPKRIEVSERKVVEFQDTPRMSTYLLYVGIGKFRYEYEKYRDIDLILASLKDIRSKYPLDMARKSVEFYENYFGIPYALPKMHLISVPEFGAGAMENWGAITFREIYMDIAENSAVTVKRNSANVIAHEIAHQWFGDLVTMKWWNDLWLNESFATFMSYKTMDTLFPEWSFWGDFFVSRTSGALRSDSLKNTHPIEVDVRDPDEISQIFDEISYGKGASILRMIEDYAGYEEFRKGISKYLNDHKFGNAEGSDLWTAIEDVSGKPVKRVMEYWIKNPGYPVIKLKRNGRKITMYQTRFLLNGEEEGRWPVPVNIKKKDGVERILLEDEASIEADGLIKINADSAGFYRVLYDDATFSDVMGHYRDLSPLDRIGLVDDLFAFLLSGHIDPETYRQRIRNFFDDEDHNVITAIVGQMEYLRMLTHAFDDDARAFCRSRMQFLTGKQDENLKIALGRVSRLYVMVDESYAEEMSKLFKDFDSAEPEMRSSIATAYALVTGDLKGLLEKFRSVDRDEDRVRIISAFGKLKSNTDLSTVYGMVEKTEIKKQDMISFFSSALETLPGREFIFANLDRIIRLVIRYFTGNRTASRTVEMMIPVIGLDHPDAEDIVRNIGSKNISMGLAKGIEMLAVNRKLVERIRQTAVK | soluble
MAHHHHHHMEAGARFPAAATPPASAGAAAVQGDAESEPDDERWSLSDGEPEAIPAKNGEPSDADVDAAMAAKGEAAELHGEGKQEEAIAKMGEALAYNPGNAMYWGMRALYHLEFNKPRAALHDANKALELNPQNVRALRVRGTVNRHLGHWEDSLKDLSAAQAIDYDDKTNETLKYVQSRATQRHKRQLARHHAEEEAAARRQEELRRQRQREAEEAAAAAEAQAAPGSMPGGLPRGFPGGMPGGMPGGMPGGMPPGMESVLQDPEIMVAMQDPEVAPKLAQMMQNPMAAMSMMNDPKVGPVMQKIMAKMMGGGGMPGGMGGMGGMGGFQGAGGMPSHRGAADGASGSTRRDDLD | not soluble
PIFTLNTNIKATDVPSDFLSSTSALVGNILSKPGSYVAVHINTDQQLSFGGSTNPAAFGTLMSIGGIEPSRNRDHSAKLFDHLNTKLGIPKNRMYIHFVNLNGDDVGWNGTTF | soluble
MNKNVMVKGLTALTILTILTSLGFAENISNQPHSIAKAEKNVKEITDATKEPYNSVVAFVGGTGVVVGKNTIVTNKHIAKSNDIFKNRVSAHHSSKGKGGGNYDVKDIVEYPGKEDLAIVHVHETSTEGLNFNKNVSYTKFADGAKVKDRISVIGYPKGAQTKYKMFESTGTINHISGTFMEFDAYAQPGNSGSPVLNSKHELIGILYAGSGKDESEKNFGVYFTPQLKEFIQNNIEK | not soluble
SGTPPGLQTDCEALLSRFQETDSVRFEDFTELWRNMKFGTIFCGRMRNLEKNMFTKEALALAWRYFLPPYTFQIRVGALYLLYGLYNTQLCQPKQKIRVALKDWDEVLKFQQDLVNAQHFDAAYIFRKLRLDRAFHFTAMPKLLSYRMKKKIHRAEVTEEFKDPSDRVMKLITSDVLEEMLNVHDHYQNMKHVISVDKSKPDKALSLIKDDFFDNIKNIVLEHQQWHKDRKNPSLKSKTNDGEEKMEGNSQETERCERAESLAKIKSKAFSVVIQASKSRRHRQVKLDSSDSDSASGQGQVKATRKKEKKERLKPAGRKMSLRNKGNVQNIHKEDKPLSLSMPVITEEEENESLSGTEFTASKKRRKH | soluble
MGSDKIHHHHHHMRTICVFNNKGGVGKTTLLCNLAAYFSIKRGKKVLVVDADPQCNATAYMIKEKVLDKLYASSSSDSATINSLIASLKKSKGYGIPPVLRSDGFNVDIVPGDPKFSLAEDFLAKDWLDAIAGDERGLRTTFFFRNLISWARSDGYDLVFFDMGPSLGAINRTVLLSSDHFILPMSSDIFSLRGLQNIEVALKNWTKGIERGLVSFKEDQGTSFKVESGDALSELGVSFLGYVTQQYTAKTVDGKKQPVSAYEKIIKKIDPLVSKHLILPLNKGQKLNYKLGEIPYFQSLVPMAQTATVPIFALKKADGVVGAHFDKVRQFDSVISGIVDKIEANMNSKGN | not soluble
MAEQRSNIMRLPPSGYRLHRFPPLAQPVAVDEEFGLDNQGWQESQVDIQQQLEAGFQQGLQQGHEEGLRQGIEQGKQQGLLDGQKEGFQKGFVSGEQAGKQGFLEAAKPVNDLFQALSRWQSEKEQQQRHMICELVQKVAQQVIRAELTLMPQQILALVDETLSAMPGKAETVTVHLNPQDLERITHINADLPKSWKLVANNELPIGGCQLVTDDAEADASCDSRLEACMDNVKQHLLDEVSIPQVESENE | not soluble
MAHHHHHHMEASAPGKVLILGSYLIVESCTPANVGISIGVNARFTTRIVKAEPTTTGASGKTTIHMRSPQFRQSFCFVANTSAPGTVAVKQTEGPGSPFIFNAVLYSVAAAQSLGSSTDGEIWVELLADNDFYSQRNYLESQGKDVNVANLRSLPPHLPLVGAISKTGLGSSAAMTTSIVACLCHHFNADGCSHEYVHRIAQIAHSVTQGKIGSGFDVYTAVYGTCAYRRFPVSRVSMMMMASAQPPSSVEVETLRRCVDMNEVWVPPESFRLPPGVKLVLGDVHQGGSCTPGMVAKIMAWRKSVADTPDNLWEQLRRNNEAYIAALRRMIDEAAAKPDVYAASMAALQQVPSLPLFRADGESMQCIVEASRFAARSRALLRDMGVAAEVKVEPVELTDLLDDTATLPGVFAVGCPGAGGYDAVFALVLGDECAAAVEAFWEHYTKMNVCPLLVREDPSGLLIQPPP | soluble
MAHHHHHHMSAAVQTLATVMATDMNYYAGDPTVLAADAASSRVEQILQSSRSDQLTARVAIHAQLREAFKNVDVQQRFKPFLSDGENIQMYVQDAKARARFFSQKQQELQHDILQSEEQRQLKEAHGELAAWERENAVLLRHQMFMTYMPSQALLLESAATVALYRQYATLEEGQYTSDSSDGEVPMMLKKMGGKTYFTQSEQPFEVDTHNKMFSQQVLQNKRVEYEQMREKAAQLRQALEECPTVKRLEAFVELRNDIFVAYGIDRLASLCSRKDKEMGNPNEGGVDASLHGLPADDEYVSSSRVAQYSLPKIVDAAYKNYLNILSMDDWDAMMKHTGSNARAVMEKIKPMKDKETFRYWFLSCITADVPQMGPNKIVGQKATTLEDYKKFWAPQKSNYVPSLTSNRSIFGSKVADRRGLPHFLILSPVTYRYRENNDPNAVKTGTMDLMVYDATNEKVLLMLTNSSDERRPRAAFLKAQEERYRFAAVVRSAITYENQYHGFECEGTVAEYFFDAQEGPEENYYCIMAPHRVYSKQPNKVQVPMKALRPFTSCPPRYFVLGSNWGVSAGTRRNPYPASYAHVELNENAVGLSNVIPDGFISSKVLPQLLSHAEGVQKLEEEMKRQQRAELERPQLSPRALTRASRGGAATPRPSTAPPSPENNAADILADENMRGPGEEEDPLSPLVPNEVLRPVRDQLLKQRRSWQSPAYIAFRARDSDLRRLPAVKDGHLRTPLNVFNDLMREKHGEDAPPASAPSSARRSNGPPSSRTASVACT | not soluble
EVKLVESGGGLVLPGGSLRLSCATSGFTFTDYYMTWVRQPPGKALEWLGFIGNKANDYTTEYSASVKGRFTISRDDSQSILYLQMSTLRAEDRATYYCATVYGNYPYFDVWGAGTTVAVSSAKTTPPSVYPLAPVCGGTTGSSVTLGCLVKGYFPEPVTLTWNSGSLSSGVHTFPAVLQSGLYTLSSSVTVTSSTWPSQSITCNVAHPASSTKVDKKIEPR | soluble
MPPPSPLHLDPIEEAHRQWTKHGWGDVADGMAAVTSVMRAQQIMMARVEEVLKPSGLTFARYELLTLLTFTRTGALPMAKASARLQVHPTSVTNAVDRLETANLVRRVPHPSDRRATLIEITDAGRKLAVESTERLNAQVFSRPGVSGDKLEQLVTILAELRREAGDFDTGDAPTKW | not soluble
MLGVVPGIGESIQAYKVAKAAKNLQGMKKALDKAATVATAQGYVSKTKIKIGQTELRVTAATDKQLLKAIGEGRTRQVK | not soluble
MGSSHHHHHHSSGLVPRGSHMASGMAPGGYVAPKAVWLPAVKAKGLEISGTFTHRQGHIYMEMNFTNKALQHMTDFAIQFNKNSFGVIPSTPLAIHTPLMPNQSIDVSLPLNTLGPVMKMEPLNNLQVAVKNNIDVFYFSCLIPLNVLFVEDGKMERQVFLATWKDIPNENELQFQIKECHLNADTVSSKLQNNNVYTIAKRNVEGQDMLYQSLKLTNGIWILAELRIQPGNPNYTLSLKCRAPEVSQYIYQVYDSILKN | soluble
MAKLITLGEILIEFNALSPGPLRHVSYFEKHVAGSEANYCVAFIKQGNECGIIAKVGDDEFGYNAIEWLRGQGVDVSHMKIDPSAPTGIFFIQRHYPVPLKSESIYYRKGSAGSKLSPEDVDEEYVKSADLVHSSGITLAISSTAKEAVYKAFEIASNRSFDTNIRLKLWSAEEAKREILKLLSKFHLKFLITDTDDSKIILGESDPDKAAKAFSDYAEIIVMKLGPKGAIVYYDGKKYYSSGYQVPVEDVTGAGDALGGTFLSLYYKGFEMEKALDYAIVASTLNVMIRGDQENLPTTKDIETFLREMKK | soluble
